From paper PMC7655957 (2020)

T1: WT_(ZIP+)/WT_(ZIP−), BICD2_(1–98) heterodimer with C-terminal ZIP+/ZIP− leucine zipper (mouse (cDNA, methods); called human in …, UniProt Q921C5-1 1-98; Q921C5-1 1-98)
T1 chain 1: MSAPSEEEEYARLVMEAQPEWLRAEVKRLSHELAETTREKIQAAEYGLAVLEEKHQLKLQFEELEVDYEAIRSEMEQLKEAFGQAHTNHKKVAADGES
T1 chain 2: T1 chain 1

B1: FIP3_(206–270), EF-hand pair of Rab11 family-interacting protein 3 (domain or fragment)
chain: RLRAVFDALDGDGDGFVRIEDFIQFATVYGAEQVKDLTKYLDPSGLGVISFEDFYQGITAIRNGD
B2: NIN_(1–87), first EF-hand pair of Ninein (domain or fragment)
chain: MDEVEQDQHEARLKELFDSFDTTGTGSLGQEELTDLCHMLSLEEVAPVLQQTLLQDNLLGRVHFDQFKEALILILSRTLSNEEHFQE

Legend:
[1] = biological target: T1, WT_(ZIP+)/WT_(ZIP−), BICD2_(1–98) …; experiment: ITC; one-site binding model (rejected, poor fit)
[2] = biological target: MBP-LIC1FL, full-length dynein light intermediate chain-1 (human, UniProt Q9Y6G9 1-523); experiment: ITC; 5 mM EGTA, 30 °C
Sequence of MBP-LIC1FL, full-length dynein light intermediate chain-1 (Q9Y6G9 whole entry): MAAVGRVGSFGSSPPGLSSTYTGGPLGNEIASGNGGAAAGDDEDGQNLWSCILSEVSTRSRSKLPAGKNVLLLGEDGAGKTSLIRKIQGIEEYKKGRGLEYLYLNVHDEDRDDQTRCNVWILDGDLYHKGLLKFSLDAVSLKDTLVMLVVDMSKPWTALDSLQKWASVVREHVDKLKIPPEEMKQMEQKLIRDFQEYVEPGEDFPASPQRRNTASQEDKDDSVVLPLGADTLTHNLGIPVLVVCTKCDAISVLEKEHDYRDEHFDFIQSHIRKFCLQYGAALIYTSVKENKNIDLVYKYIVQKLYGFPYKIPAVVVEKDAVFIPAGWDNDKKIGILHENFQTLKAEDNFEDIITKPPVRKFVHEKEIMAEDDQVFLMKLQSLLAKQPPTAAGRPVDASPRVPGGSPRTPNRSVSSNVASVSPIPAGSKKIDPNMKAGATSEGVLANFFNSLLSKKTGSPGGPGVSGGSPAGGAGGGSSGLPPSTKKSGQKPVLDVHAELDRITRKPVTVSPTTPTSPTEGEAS

| Binder | Kd [1] [µM] | Kd [2] [µM] |
| --- | --- | --- |
| NMKAGATSEGVLANFFNSLLSKKTGS [LIC1_(433–458), amphipathic helix of the dynein light intermediate chain-1] | 3 |  |
| B1 |  | 3.1 |
| B2 |  | 15.5 |
